The data set in a line: yeast display, Sf9 membrane polyspecificity reagent, FACS + sequencing; frameworks hold sequencing errors. The gist of the method: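 Sorting gates, low and high (top ~1%), were placed on anti-HA fluorescence to track expression and on streptavidin fluorescence to track reagent binding. A clone's polyreactivity label is taken from the gate it came out of. The reagent was 10% biotinylated, detergent-solubilized Sf9 membrane, applied for 1 hour at 4 °C to galactose-induced yeast display cells.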
On to “QVQLLESGGGLVQAGGSLRLSCAASGYIFLRNAMGWYRQAPGKERELVAAIRRTGGSTYYADSVKGRFTISRDNAKNTVYLQMNSLKPEDTAVYYCAKRSYTGYEYWGQGTQVTVSS”, for which the “polyreactivity (PSR sort gate)” value is “low polyreactivity”.
The value for “QVQLLESGGGLVQAGGSLRLSCAATRRIFEYNGMGWYRQAPGKDSELVAAIEWNGSPTYADSVKGRFTIARDNAKNTVYLLMNSLKPEDTSVYYCAKAYPGKAPKYDYWGQGTQVTVSS” was “low polyreactivity”; that for “QVQLLESGGGLVQAGGSLRLSCADSGSIFPKNAIGWYRQAPGKERELVAGITSRTGRTYYADSVKGRFTISRDNSKNTVYLQMNRLKPEDTAVYYCAARIGGGPVKYDYWGQGTQVTVSS” was “high polyreactivity”.
Regarding “QVQLLESGGGLVQAGGSLRLSCAHSGLIIWANAMGWYRQAPGKESEMVAAISGSGGRTYYADSVKGRFSISRDNAKNTVYLEMNSLIPEDTAVYFCAAKVSAWKKKSEMNYWGQGTQVTVSS”, the “polyreactivity (PSR sort gate)” value was “high polyreactivity”.
With “QVQLLESGGGLVQAGGSLRLSCDASGITFGPNAMGWYRQAPGKERELVATISSSGGSTYYSDSVKGRFTISRDNAKNTVLLQMKSLKPEDTAVYYCNSGFDPYLGAYDYWGQGTQVTVSS”, the “polyreactivity (PSR sort gate)” value was “low polyreactivity”.
In the case of “QVQLLESGGGLVQAGGSLRLTCAASGSTFDYYAMGWYRQAPGKERELVATISYNDDTTYYADSVKGRFTISRDNAKNTVYLQMNSLKPEDTAVYYCNAEVYGGRYYVDMYYWGQGTQVTVSS”, the “polyreactivity (PSR sort gate)” value is reported as “low polyreactivity”.
For “QVQLLESGGGLVQAGGSLSLSCAASGSTFKHYAMGWYRQAPGKERELVAAISSRGGSTHYADSVKGRFTISRDNAKNTVYLQMNSLKREDTAVYYCARDTDPQSSRSSDYDYWGQGTQVSVSS”, the “polyreactivity (PSR sort gate)” value is on record as “low polyreactivity”.
In the case of “QVQLLESGGGLVQAGGSRRLSCAASGRTFIFNAMGWYRQAPGKETELVAAISSGGGTNYADSEKGRFTISRDNAKNTVYLQMNSLKPEDTAVYYCARGSYKYRHSYDYWGQGTEVTVSS”, the “polyreactivity (PSR sort gate)” value is recorded as “low polyreactivity”.
On to “QVQLLESGGGLVQAGGTLRLSCAASGSIIGRNAMGWYRQAPGKERELVAAITWRTGSTFYADSVKGRFTISRDNAKNTVYLQMNSLKPEDTAVYYCNAAGPAYSYYHWLWGDYNSWRQGTQVTVSS”, for which the “polyreactivity (PSR sort gate)” value was “low polyreactivity”.
On to “QVQLLESGGGLVQAGGTLRLSCAASGYTFTNNAMGWYRQAPGKERELVAGITRGGSTNYADSVKGRFTISRDNAKNTVSLQMNSLKPEDTAVYYWAADLRPNSQNGLLEDEMDYWGQGTQVTVSS”, for which the “polyreactivity (PSR sort gate)” value is listed as “low polyreactivity”.
On to “QVQLLESGGGLVQARGSLRISCAASGLTFFFYAMGWYRQAPGKERELVAAISFSGGSTYADSVKGRFTISRDNAKNTVYLQMNSLKPEDTAVYYCNAPPQFATFTYANWRQGTQVTVSS”, for which the “polyreactivity (PSR sort gate)” value is given as “low polyreactivity”.
In the case of “QVQLLESGGGLVQPGGSLRLSCAASGSIFGLNAMGLYRQEPGKETELVAAISGGSTNYADSVKGRFTISRDNAKNTVYFQMISLKPEDTAVYYCAAPRTKYLSNYGFWGEGTQVTVSS”, the “polyreactivity (PSR sort gate)” value is listed as “high polyreactivity”.
As for “QVQLLESGGGLVQSGGSLRLSCADSGNIFVTYAMGWYRQAPGKESELVAGITSSDDSTYYADSVKVRFTISLDNAKNTVYLQMNSLKPEDTAVYYCATYYWEVGIGQFYYWGQGTQVTVSS”, the “polyreactivity (PSR sort gate)” value is “low polyreactivity”.
With “QVQLLESGGGVVQAGGSLRLSCASSGFTFRINAMGWYRPAPGKERELVAANSGRGGSTYYADSVKGRFTISRDYAKNTVYLQMNSLKPEDTAVYYCAAKGSSSLSYYYWGQGTQVTVSS”, the “polyreactivity (PSR sort gate)” value is “high polyreactivity”.
On to “QVQLLESGGVLVQAGGSLLLSCAASGSIFSPYAMGRYRQAPGKERELVATISTIDGSTTYADSVKGRFTISRDYAKNTVYLQMKSLKPEDTAVYYCNAEYAYFKLWANPYDMDYWGQGTQVTVSS”, for which the “polyreactivity (PSR sort gate)” value is given as “low polyreactivity”.
The same measure for “QVQLLESGRGLVQAGGSLRLSCAPSGSIFSGMVMGWYIQAPGKERELVAAISSRGGNTYYADSVKGRFTISRDNAKNTVYLQMNSLITEDTAVYYCNKVKFNWYEWGQGTQVSVSS”: “high polyreactivity”.
Take “QVQLLESGVGLDQAGGSLRLSCAASGSTFNRNAMGWYRQAPGKERELVAAITYSGGSTYYADSVKGRFTISRDNAKNTVYLQMNSLNPEDTAVYYCNAPYAGMGYWGQGTQVTVSS”: the “polyreactivity (PSR sort gate)” value is given as “low polyreactivity”.
The value for “QVQLLETGRGLVQAGGSLRISCAASGYTFGVYVMGWYRQAPGQERELVAAISGSTYYADSVNGRFKISRDNAKNTVYLQMNSLKPEDTAVYYCAAESFFFSPRTREIFDYWGQGTQVTVSS” was “low polyreactivity”; that for “QVQLQDSGGGLVQAGGSLGLSCAASGYIFGSGSMGWFRQAPGKERELVATINNGSSTYYADSVKGRFTISRDNSKNTVSLQMNSLKPEDTAVYYCAVYLYRLTFFYYWGQGNQVTVSS” was “high polyreactivity”.
As to “QVQLQDSGGGLVQAGGSLRLSCAASGTISYRYRMGWYRQAPRKEVELVAGIRVGSITYDADSVKGRFTISRDNAKNTVYLQMNSLKPEDIAVYYCAVYQKSYRFFPYWGQGTQVTVSS”, the “polyreactivity (PSR sort gate)” value is “high polyreactivity”.
For the sequence “QVQLQDSGGVQAGGSLRLSCAASGYISRSDVMGWYRQAPGKERELVATIINGTITYYADSVKGRFPISRDNAKNTVYLQMNSLNPEDTAVQYCAVVQSDTDSLYYWGQGTQVTVSS”, the “polyreactivity (PSR sort gate)” value is “low polyreactivity”.
“QVQLQDSVGCLVQAGGSLRLSCAASGSISIYGYMGWYRQAPGNERELVAAITAGGSTYYADSVKGRFTISRDNAKNTVYLLMKSLKPEDTAVYYCAPYEQRVYDLHYWGQGTQVTVSS”: the “polyreactivity (PSR sort gate)” value is reported as “high polyreactivity”.
On to “QVQLQECGGGLVQAGGSLRLSCAASGNIFDAYIMGWYRQAPGKERELVASVTDGGSTNYADSVKGRFTISRDNAKNTVYLQMNSLKPEDTAVYYCAAIVYPDILTYFDYDYDYFYWGQGTQVTVGS”, for which the “polyreactivity (PSR sort gate)” value is listed as “low polyreactivity”.
Consider “QVQLQECGGGLVQAGGSLRLSCAASVNIFDADIMGSYRQAPGKERELVASVTDGGSTNYADSVKGRFTISRDNAKNTVYLQMNSLKPEDTAVYYCAGIVYPDILTFFDYDYDYFYWGQGTQVTVGS”, for which the “polyreactivity (PSR sort gate)” value is “low polyreactivity”.
“QVQLQECGGGLVQAGGSLRLSCAASVNIFDADIMGWYRQAPGKERELVASVTDGGSTNYADSVKGRFTISRDNAKNTVYLQMNSLKPEDTAVYYCAAIVYPDILTYFEYDYDYFYWGQGTQVTVGS”: the “polyreactivity (PSR sort gate)” value is reported as “low polyreactivity”.
Turning to “QVQLQEIGGGLVQAGGSLRLRCAASRNISGSSDLGWYHQAPGKEREFVASITSGGTTYYADSVKGRFTISRDNAKKTVYLQMNSLKAEDTAVYYCAVGDPADAEFGYWGQGTQVTVSS”, the “polyreactivity (PSR sort gate)” value was “low polyreactivity”.
For “QVQLQEIGGGLVQAGGSLRLSCAASGYIIPYYSMRWYRQAPGKERGLVACIAAGTTTNFADCVKGRFTISRDNAKNTVYLQMNSLKPEDAAVYFCAALNAFKTGDWYWGQGTQVTVSS”, the “polyreactivity (PSR sort gate)” value is “low polyreactivity”.
For “QVQLQERGGGLVQAGGSLLSCAASGTISYYREMGWYRQAPGKERELVAGIGVGTITYYADSVKGRFTISRDNAKNTVYLQMNRLKPEDTAVYFCAAHIDGNDSHAYWGQGTQVTVSS”, the “polyreactivity (PSR sort gate)” value is listed as “low polyreactivity”.
For “QVQLQERGGGLVQAGGSLRMSCAASGSIFVSVTMGWYRQAPGKERELVASIGRGSTTNHADSVKGLFTISRDNAKNIVYLLMNSLKPEDTAVYYCAALESYGKYHGYWGQGTQVTVSS”, the “polyreactivity (PSR sort gate)” value is given as “low polyreactivity”.
Turning to “QVQLQERGGGLVQAGGSLRQSCAAIGYIFPYYSMGWYRQATGKERGLVACIAAGTTTNYADSVKGRFTISRDNAINTVYLQMNSLKPEDAAVYYCAALNAFKTGHWYWGQGTQVTVSS”, the “polyreactivity (PSR sort gate)” value was “low polyreactivity”.
In the case of “QVQLQESAGGLEQAGGSLRLSCAASAYISDIGTKGWYRQAPRKEREFVATIVVGSTTNYADSVKGRFTISRDNAKNTVYLQPESGRYRGVFLRGWLLPVGKFTYWGQGTQETVSS”, the “polyreactivity (PSR sort gate)” value is “low polyreactivity”.
Consider “QVQLQESAGGLVQAGGSLRLRCSASGYISCDASMGSYRQAPGKERELAASITKGSSTNYADSVKGRFTIRDNAKNTVYLQMNSLKPEDTAVCYCAVTYPYWGDYTYWGQGTQVTVSS”, for which the “polyreactivity (PSR sort gate)” value was “low polyreactivity”.
As for “QVQLQESAGGRQPAPELRGERLYFWLLLMGWYRQAPGEERELVAGINDGASTNYADSVKGRFTISRDNARNTVYLKMNSLKPGDTAVYYCAVWQPVLIWFYYWGQGTQVTVSS”, the “polyreactivity (PSR sort gate)” value is recorded as “high polyreactivity”.
Take “QVQLQESCGGLVQEAGSLRLSCAASGNISPPADMGWYRQAPGKQRELVASIGTGGTTNYADSEKGRFTISRDNAKNTVYLQMNSLKPEDSAVYYCNVDIGVYAYESDYWGQGTQVTVSS”: the “polyreactivity (PSR sort gate)” value is “low polyreactivity”.
Consider “QVQLQESGAALVQAGGSLRLSCAASGNIFVDAYMGWYRQAPGKERELVATIAPADSVKGRFTISRDNAKNTVYLQMNRLKPEDTAVYYCAAFTGYSSVFGFWGQGIQVTVSS”, for which the “polyreactivity (PSR sort gate)” value is on record as “high polyreactivity”.
With “QVQLQESGAGLVKAGGSLRLSCAASGNISNHNDMGWYRQAPGKEREFVAGITAGGITNYADSVKRRFTISRDNAKNSVYLQMKSLKPEDTAVYYCAAYPDYDKSYGYWGQGTQATVSS”, the “polyreactivity (PSR sort gate)” value is on record as “low polyreactivity”.
For the sequence “QVQLQESGAGLVQAGGSLRLICAASGNIFRGDYVGWYHQAPGKEREFVASITGGGNTNFADSVKGRYSISRDNAKKTVYLKMNSLKPEDTAVYYCAVFDAWLARLIFWGQGSQVTVSS”, the “polyreactivity (PSR sort gate)” value was “high polyreactivity”.
The value for “QVQLQESGAGLVQAGVSLRLSCAASGYISTFSSEMGWYRQAPGKDRELVASIAPGCTTSYADSVKGRFTISRDKAKNTVFLQMNSLKPEDTAVYYCAVDYTVPASFGYWGQGTQVTVSS” was “high polyreactivity”; that for “QVQLQESGGALVQAGGSLRLSCAASGNIYDADIMGWYRQAPGKERELVTSITDGGSTNYADSVKGRFTISRDNAKNTVYLQMNSLKPQDTAVYYCAAIAYPDIPTSFDYNSDYSYWGQGTQVTVSS” was “low polyreactivity”.
On to “QVQLQESGGALVQAGGSLRLSCAASGTISDRAGMGWYRQAPAKNANVATIDRGTNTNYADSVKGRFTISRDNAKNTVYLQMNSLKPEDTAVYNCAADGRYYIYLDYWGQGTQVTVSS”, for which the “polyreactivity (PSR sort gate)” value is on record as “low polyreactivity”.
For the sequence “QVQLQESGGCLVQAGGSLRKSCAASGNIFDADIMGWYRQAPGKERELVASITDGRRTNYADSVKGRYTISRDSENNTVYLQLNSLKAEDTAVYYCAAIAYPVVPTYFDYDSDFFHWGQGTQVTVSS”, the “polyreactivity (PSR sort gate)” value was “high polyreactivity”.

The values above are taken from the nanobody polyreactivity screen of Harvey et al. (2022).
